# Positions count from the first letter of the chain named. Values joined by “and” are separate entries in the source; they are usually repeats but may differ in a detail not shown here. Identical values can stand only once.
# T1: ScDmc1 (Dmc1–WT) (Saccharomyces cerevisiae, UniProt P25453)
# T1 construct: N-terminal 6x-His tag (kept), expressed in E. coli; nucleoprotein filament on 90 nt ssDNA
# T1 sequence (P25453 1-334): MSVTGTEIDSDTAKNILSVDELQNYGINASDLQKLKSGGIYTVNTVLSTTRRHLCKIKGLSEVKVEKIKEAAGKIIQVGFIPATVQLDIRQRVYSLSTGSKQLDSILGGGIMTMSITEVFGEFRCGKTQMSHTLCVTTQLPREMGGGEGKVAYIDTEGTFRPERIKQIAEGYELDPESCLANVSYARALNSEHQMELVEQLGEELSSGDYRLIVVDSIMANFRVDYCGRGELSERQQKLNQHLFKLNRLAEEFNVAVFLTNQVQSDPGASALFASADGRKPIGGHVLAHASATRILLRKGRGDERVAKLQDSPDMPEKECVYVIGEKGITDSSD
# T2: ScDmc1 (Saccharomyces cerevisiae, UniProt P25453, E157D)
# T2 construct: gene DMC1; N-terminal 6x-His tag (kept), expressed in E. coli; nucleoprotein filament on 90 nt ssDNA
# T2 sequence (P25453 1-334 E157D): T1 sequence (P25453 1-334) with E157D
# T3: ScDmc1 (Saccharomyces cerevisiae Dmc1, wild type) (Saccharomyces cerevisiae) (UniProt P25453)
# T3 sequence: T1 sequence (P25453 1-334)
# T4: Mei5-Sae3 (Saccharomyces cerevisiae, UniProt P32489;P89114 1-222;1-91)
# T4 sequence 1: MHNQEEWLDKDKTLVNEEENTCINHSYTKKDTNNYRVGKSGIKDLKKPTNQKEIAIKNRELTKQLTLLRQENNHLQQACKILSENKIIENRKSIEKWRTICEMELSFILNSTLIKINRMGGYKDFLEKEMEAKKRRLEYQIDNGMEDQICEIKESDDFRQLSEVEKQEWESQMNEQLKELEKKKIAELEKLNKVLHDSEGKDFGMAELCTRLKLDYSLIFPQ
# T4 sequence 2: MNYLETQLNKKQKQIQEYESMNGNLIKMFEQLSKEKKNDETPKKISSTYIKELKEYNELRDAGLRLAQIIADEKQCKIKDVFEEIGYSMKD
# T5: Dmc1-E157D (Saccharomyces cerevisiae, UniProt P25453 1-334, E157D)
# T5 sequence: T1 sequence (P25453 1-334) with E157D
# T6: Dmc1-WT;Mei5-Sae3 (Saccharomyces cerevisiae;Saccharomyces …, UniProt P25453;P32489;P89114 1-334;1-222;1-91, |)
# T6 sequence 1: T1 sequence (P25453 1-334)
# T6 sequence 2: T4 sequence 1
# T6 sequence 3: T4 sequence 2
# T7: Dmc1-WT (Saccharomyces cerevisiae, UniProt P25453 1-334)
# T7 sequence: T1 sequence (P25453 1-334)
# B1: ScMei5–Sae3 heterodimer (complex)
# chain 1: T4 sequence 1
# chain 2: T4 sequence 2
# B2: 84 nt-ssDNA (ssDNA)
# DNA: GGTAGCGGTTGGGTGAGTGGTGGGGAGGGTCGGGAGGTGGCGTAGAAACATGATAGGAATGTGAATGAATGAAGTACAAGTAAA
# Assays:
# ScDmc1 (Dmc1–WT) = target: T1, ScDmc1 (Dmc1–WT); assay: nitrocellulose filter binding; conditions: 3 µM Dmc1, 90 nt ssDNA (6 µM nt), 5 mM Mg2+, 70 µM Ca2+, pH 7.5, 30°C; labelled compound (alpha-32P); read-out: KD (apparent)
# Source text: nitrocellulose filter binding on ScDmc1 (Dmc1–WT) | Dmc1–WT binds ATP with the same apparent affinity in the presence and absence of Mei5–Sae3
# ScDmc1 = target: T2, ScDmc1; assay: nitrocellulose filter binding; conditions: 3 µM Dmc1, 90 nt ssDNA (6 µM nt), 5 mM Mg2+, 70 µM Ca2+, pH 7.5, 30°C; labelled compound (alpha-32P)
# [1] = target: T3, ScDmc1 (Saccharomyces cerevisiae Dmc1, wild type) (Saccharomyces cerevisiae)
# [2] = target: T3, ScDmc1 (Saccharomyces cerevisiae Dmc1, wild type) (Saccharomyces cerevisiae); remark: listed apart in the source
# [3] = target: T3, ScDmc1 (Saccharomyces cerevisiae Dmc1, wild type) (Saccharomyces cerevisiae); remark: listed apart in the source
# [4] = target: T3, ScDmc1 (Saccharomyces cerevisiae Dmc1, wild type) (Saccharomyces cerevisiae); remark: listed apart in the source
# [5] = target: T3, ScDmc1 (Saccharomyces cerevisiae Dmc1, wild type) (Saccharomyces cerevisiae); remark: listed apart in the source
# [6] = target: T3, ScDmc1 (Saccharomyces cerevisiae Dmc1, wild type) (Saccharomyces cerevisiae); remark: listed apart in the source
# Mei5-Sae3 = target: T4, Mei5-Sae3; assay: fluorescence polarization; titration; very low signal at 400 nM; FP: 25 mM HEPES pH 7.5, 1 mM Mg2+, 1 mM ATP, 1 mM DTT, 50 mM NaCl (100 mM in Fig. 3), 100 ug/ml BSA, 0.02% NP-40, 70 uM Ca2+ or as indicated, 3 nM 84-nt ssDNA; conditions: protein: recombinant; tags: N-terminal 6xHis on Mei5; copies: 1;1; label: 5' Alexa Fluor 488
# Dmc1-E157D = target: T5, Dmc1-E157D; assay: fluorescence polarization; ATP, 70 uM Ca2+, 50 mM NaCl, 30 C; comparable to WT; FP: 25 mM HEPES pH 7.5, 1 mM Mg2+, 1 mM ATP, 1 mM DTT, 50 mM NaCl (100 mM in Fig. 3), 100 ug/ml BSA, 0.02% NP-40, 70 uM Ca2+ or as indicated, 3 nM 84-nt ssDNA; conditions: protein: recombinant; tags: N-terminal 6xHis; label: 5' Alexa Fluor 488
# Dmc1-WT;Mei5-Sae3 [7] = target: T6, Dmc1-WT;Mei5-Sae3; assay: fluorescence polarization; ATP, 70 uM Ca2+, Mei5-Sae3 (400 nM, no own signal); FP: 25 mM HEPES pH 7.5, 1 mM Mg2+, 1 mM ATP, 1 mM DTT, 50 mM NaCl (100 mM in Fig. 3), 100 ug/ml BSA, 0.02% NP-40, 70 uM Ca2+ or as indicated, 3 nM 84-nt ssDNA; conditions: protein: recombinant;recombinant; tags: N-terminal 6xHis;N-terminal 6xHis on Mei5; label: 5' Alexa Fluor 488
# Dmc1-WT [8] = target: T7, Dmc1-WT; assay: fluorescence polarization; ATP, 0 Ca2+; FP: 25 mM HEPES pH 7.5, 1 mM Mg2+, 1 mM ATP, 1 mM DTT, 50 mM NaCl (100 mM in Fig. 3), 100 ug/ml BSA, 0.02% NP-40, 70 uM Ca2+ or as indicated, 3 nM 84-nt ssDNA; conditions: protein: recombinant; tags: N-terminal 6xHis; label: 5' Alexa Fluor 488
# Dmc1-WT;Mei5-Sae3 [9] = target: T6, Dmc1-WT;Mei5-Sae3; assay: fluorescence polarization; ADP, 400 nM Mei5-Sae3; FP: 25 mM HEPES pH 7.5, 1 mM Mg2+, 1 mM ATP, 1 mM DTT, 50 mM NaCl (100 mM in Fig. 3), 100 ug/ml BSA, 0.02% NP-40, 70 uM Ca2+ or as indicated, 3 nM 84-nt ssDNA; conditions: protein: recombinant;recombinant; tags: N-terminal 6xHis;N-terminal 6xHis on Mei5; label: 5' Alexa Fluor 488
# Dmc1-WT [10] = target: T7, Dmc1-WT; assay: fluorescence polarization; ATP, 70 uM Ca2+; FP: 25 mM HEPES pH 7.5, 1 mM Mg2+, 1 mM ATP, 1 mM DTT, 50 mM NaCl (100 mM in Fig. 3), 100 ug/ml BSA, 0.02% NP-40, 70 uM Ca2+ or as indicated, 3 nM 84-nt ssDNA; conditions: protein: recombinant; tags: N-terminal 6xHis; label: 5' Alexa Fluor 488
# Dmc1-WT [11] = target: T7, Dmc1-WT; assay: fluorescence polarization; ATP, 250 uM Ca2+; FP: 25 mM HEPES pH 7.5, 1 mM Mg2+, 1 mM ATP, 1 mM DTT, 50 mM NaCl (100 mM in Fig. 3), 100 ug/ml BSA, 0.02% NP-40, 70 uM Ca2+ or as indicated, 3 nM 84-nt ssDNA; conditions: protein: recombinant; tags: N-terminal 6xHis; label: 5' Alexa Fluor 488
# hRad51 [12] = target: T8, hRad51 (Homo sapiens, UniProt Q06609 1-339); assay: fluorescence polarization; ADP; FP: 25 mM HEPES pH 7.5, 1 mM Mg2+, 1 mM ATP, 1 mM DTT, 50 mM NaCl (100 mM in Fig. 3), 100 ug/ml BSA, 0.02% NP-40, 70 uM Ca2+ or as indicated, 3 nM 84-nt ssDNA; conditions: chain copies: 28; label: 5' Alexa Fluor 488
# Dmc1-WT;Mei5-Sae3 [13] = target: T6, Dmc1-WT;Mei5-Sae3; assay: fluorescence polarization; AMP-PNP, 400 nM Mei5-Sae3; FP: 25 mM HEPES pH 7.5, 1 mM Mg2+, 1 mM ATP, 1 mM DTT, 50 mM NaCl (100 mM in Fig. 3), 100 ug/ml BSA, 0.02% NP-40, 70 uM Ca2+ or as indicated, 3 nM 84-nt ssDNA; conditions: protein: recombinant;recombinant; tags: N-terminal 6xHis;N-terminal 6xHis on Mei5; label: 5' Alexa Fluor 488
# RecA;Mei5-Sae3 = RecA;Mei5-Sae3 (Escherichia coli;Saccharomyces …, UniProt P0A7G6;P32489;P89114 1-353;1-222;1-91, |); assay: fluorescence polarization; 400 nM Mei5-Sae3: no impact on Kd; FP: 25 mM HEPES pH 7.5, 1 mM Mg2+, 1 mM ATP, 1 mM DTT, 50 mM NaCl (100 mM in Fig. 3), 100 ug/ml BSA, 0.02% NP-40, 70 uM Ca2+ or as indicated, 3 nM 84-nt ssDNA; conditions: protein: ;recombinant; tags: ;N-terminal 6xHis on Mei5; label: 5' Alexa Fluor 488
# hRad51 [14] = target: T8, hRad51; assay: fluorescence polarization; ATP; FP: 25 mM HEPES pH 7.5, 1 mM Mg2+, 1 mM ATP, 1 mM DTT, 50 mM NaCl (100 mM in Fig. 3), 100 ug/ml BSA, 0.02% NP-40, 70 uM Ca2+ or as indicated, 3 nM 84-nt ssDNA; conditions: chain copies: 28; label: 5' Alexa Fluor 488
# Dmc1-WT [15] = target: T7, Dmc1-WT; assay: fluorescence polarization; ATP, 1 mM Ca2+; FP: 25 mM HEPES pH 7.5, 1 mM Mg2+, 1 mM ATP, 1 mM DTT, 50 mM NaCl (100 mM in Fig. 3), 100 ug/ml BSA, 0.02% NP-40, 70 uM Ca2+ or as indicated, 3 nM 84-nt ssDNA; conditions: protein: recombinant; tags: N-terminal 6xHis; label: 5' Alexa Fluor 488
# RecA = RecA (Escherichia coli, UniProt P0A7G6 1-353); assay: fluorescence polarization; 100 mM NaCl (90% of binding remains); FP: 25 mM HEPES pH 7.5, 1 mM Mg2+, 1 mM ATP, 1 mM DTT, 50 mM NaCl (100 mM in Fig. 3), 100 ug/ml BSA, 0.02% NP-40, 70 uM Ca2+ or as indicated, 3 nM 84-nt ssDNA; conditions: label: 5' Alexa Fluor 488
# Chain of RecA (P0A7G6 whole entry): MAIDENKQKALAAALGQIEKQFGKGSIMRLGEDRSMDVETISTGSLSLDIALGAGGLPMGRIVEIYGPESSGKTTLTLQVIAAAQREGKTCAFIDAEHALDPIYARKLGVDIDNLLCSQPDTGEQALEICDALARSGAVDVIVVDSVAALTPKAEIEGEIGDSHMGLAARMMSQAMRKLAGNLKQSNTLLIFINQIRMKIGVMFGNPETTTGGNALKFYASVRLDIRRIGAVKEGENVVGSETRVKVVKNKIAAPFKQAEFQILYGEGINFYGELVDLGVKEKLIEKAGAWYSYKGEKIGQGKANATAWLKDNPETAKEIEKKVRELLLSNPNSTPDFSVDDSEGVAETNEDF
# T8 sequence (Q06609 whole entry): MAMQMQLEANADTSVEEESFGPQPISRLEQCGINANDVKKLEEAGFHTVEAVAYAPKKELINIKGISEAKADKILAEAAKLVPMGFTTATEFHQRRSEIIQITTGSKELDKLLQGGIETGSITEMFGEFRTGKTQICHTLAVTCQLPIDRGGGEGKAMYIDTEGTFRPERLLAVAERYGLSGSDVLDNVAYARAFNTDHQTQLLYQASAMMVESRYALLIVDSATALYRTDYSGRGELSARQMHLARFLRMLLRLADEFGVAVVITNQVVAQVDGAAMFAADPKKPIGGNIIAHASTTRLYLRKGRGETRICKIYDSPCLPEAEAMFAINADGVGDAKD
# Chain of RecA;Mei5-Sae3 (P0A7G6 whole entry, one chain of several): as the sequence (P0A7G6 whole entry) above
molecule,measurement,setting,value
Nc1ncnc2c1ncn2[C@@H]1O[C@H](COP(=O)(O)OP(=O)(O)OP(=O)(O)O)[C@@H](O)[C@H]1O [ATP],Kd,ScDmc1 (Dmc1–WT),5000 to 6000 nM
same,nitrocellulose filter binding,ScDmc1,ATP binding activity of Dmc1–E157D and found it was significantly reduced
B1,"negative-stain EM: average Dmc1 filament length with 2 µM Mei5–Sae3 against the control without it (ATP, 70 µM Ca2+, RPA)",[1],1.5 fold
same,"negative-stain EM: share of Dmc1 filaments in the extended (active) form with 2 µM Mei5–Sae3 (ATP, 70 µM Ca2+, RPA; 17% without Mei5–Sae3)",[1],76%
same,"negative-stain EM: average Dmc1 filament length with versus without Mei5–Sae3, ADP as cofactor (compressed filaments)",[2],2.3 fold
same,"negative-stain EM: average Dmc1 filament length with versus without Mei5–Sae3, AMP–PNP as cofactor",[2],1.5 fold
same,"D-loop yield with versus without 0.5 µM Mei5–Sae3 (3 µM Dmc1, 0.2 µM RPA, 70 µM Ca2+, 5 mM Mg2+, ATP)",[3],2.5 fold
same,"apparent KD of Dmc1 for ssDNA by fluorescence polarisation, fold reduction by 400 nM Mei5–Sae3 (ADP in place of ATP)",[4],1.5 fold
same,"apparent KD of Dmc1 for ssDNA by fluorescence polarisation, fold reduction by 400 nM Mei5–Sae3 (AMP–PNP in place of ATP)",[4],1.5 fold
same,"apparent KD of Dmc1 for ssDNA by fluorescence polarisation, fold reduction by 400 nM Mei5–Sae3 (ATP, 70 µM Ca2+, 100 mM NaCl)",[4],2 fold
same,"3H-ADP retained on Dmc1 filaments (nitrocellulose filter) after adding 0.5, 1 or 2 µM Mei5–Sae3; value at 2 µM",[5],65%
same,"ssDNA-dependent ATP hydrolysis by Dmc1 (TLC), with versus without Mei5–Sae3, 70 µM Ca2+",[6],2 fold
B2,binding result,Mei5-Sae3,binds
same,binding result,Dmc1-E157D,binds
same,Kd,Dmc1-WT;Mei5-Sae3 [7],512 ± 25 nM
same,Kd,Dmc1-WT [8],1340 ± 113 nM
same,fold decrease in Kd vs Dmc1 alone,Dmc1-WT;Mei5-Sae3 [9],~1.5 fold lower Kd than Dmc1 alone
same,Kd,Dmc1-WT [10],966 nM and 933 nM
same,Kd,Dmc1-WT [11],472 nM and 508 nM
same,Kd,hRad51 [12],476 ± 20 nM
same,fold decrease in Kd,Dmc1-WT;Mei5-Sae3 [13],~1.5 fold lower Kd than Dmc1 alone
same,binding result,RecA;Mei5-Sae3,binds
same,Kd,hRad51 [14],342 ± 10 nM
same,Kd,Dmc1-WT [15],164 ± 13 nM
same,binding result,RecA,binds

# — paper PMC12596195, “Mei5–Sae3 stabilizes both active and inactive forms of Dmc1 filaments independently of its impact on ATP hydrolysis” (Nucleic Acids Research, 2025)
